Substitutions are numbered along the chain they refer to.
What was measured:
[1] = target: T1, human tissue factor (TF), membrane-bound on cells (human, UniProt P13726 33-295); assay: FACS, A431 cells
T1 construct: whole, on cells; also called cellular TF
Method: (§1) Cells were resuspended in PBS (2×10⁶ cells/ml), put in 96-well V-bottom plates (50 μl/well). 50 μl of serially diluted HuMab in FACS buffer (PBS supplemented with 0.1% BSA and 0.02% Na-azide) was added to the cells and incubated for 30 minutes on ice. After washing three times with FACS buffer, 50 μl of phycoerythrin (PE)-conjugated goat anti-human IgGFc (Jackson ImmunoResearch), diluted 1:100 in FACS buffer, was added. After 30 minutes on ice (in the dark), cells were washed three times, and specific binding of the HuMabs was detected by flow cytometry on a FACSCalibur (BD Biosciences). HuMab-KLH was used as a negative control. Mouse anti-TF followed by PE-conjugated anti-mouse IgGFc was used as positive control. Binding curves were analyzed using non-linear regression (sigmoidal dose-response with variable slope) using GraphPad Prism V4.03 software (GraphPad Software, San Diego, Calif., USA).

[2] = target: T1, human tissue factor (TF), …; assay: FACS, Bx-PC3 cells
Method: as §1

[3] = target: T1, human tissue factor (TF), …; assay: FACS, MDA-MB-231 cells
Method: as §1

[4] = target: T1, human tissue factor (TF), …; assay: cell-based or functional assay
[5] = target: T1, human tissue factor (TF), …; assay: cell-based or functional assay; remark: listed apart in the source
TF (Innovin) [6] = target: T2, TF (Innovin) (UniProt P13726 33-295, limits assumed); assay: cell-based or functional assay
TF (Innovin) [7] = target: T2, TF (Innovin); assay: cell-based or functional assay; remark: listed apart in the source
[8] = target: T1, human tissue factor (TF), …; assay: cell-based or functional assay; remark: listed apart in the source
[9] = target: T1, human tissue factor (TF), …; assay: FACS, A431 cells, 30 µg/mL
Method: as §1

[10] = target: T1, human tissue factor (TF), …; assay: FACS, Bx-PC3 cells, 30 µg/mL
Method: as §1

[11] = target: T1, human tissue factor (TF), …; assay: FACS, MDA-MB-231 cells, 30 µg/mL
Method: as §1

[12] = target: T3, TFECDHis (extracellular domain of tissue factor, amino acid 1-251, with C-terminal His tag) (human, UniProt P13726 33-251); assay: ELISA, coated TFECDHis, mean of 3
T3 construct: range 1-251; The stated range 1-251 starts at residue 1 of NP-001984; also called extracellular domain of TF
Method: (§2) The specificity of the obtained anti-TF HuMabs was evaluated by ELISA. ELISA plates (Microlon; Greiner Bio-One) were coated overnight at +4° C. with 0.5 μg/mL of TFECDHis in PBS, pH 7.4. Coated ELISA plates were emptied and blocked for one hour at room temperature with 2% (v/v) chicken serum (Gibco, Paisley, Scotland) in PBS and washed with PBS containing 0.05% Tween 20 (PBST). Subsequently, HuMabs, serially diluted in PBSTC (PBS supplemented with 2% (v/v) chicken serum and 0.05% (v/v) Tween-20), were incubated for 1 hr at RT under shaking conditions (300 rpm). Bound HuMabs were detected using HRP-conjugated goat-anti-human IgG antibodies (Jackson ImmunoResearch) diluted 1:5,000 in PBSTC, which were incubated for 1 hr at RT under shaking conditions (300 rpm). […] HuMab-KLH (a human monoclonal antibody against KLH (keyhole limpet haemocyanin)), was used as a negative control. Mouse anti-human TF (ERL) was used as positive control (HRP labeled anti-mouse IgG as conjugate). Binding curves were analyzed using non-linear regression (sigmoidal dose-response with variable slope) using GraphPad Prism V4.03 software.

[13] = target: T1, human tissue factor (TF), …; assay: FACS, TF transfected CHO cells (S1015-TF)
Method: as §1

[14] = target: T1, human tissue factor (TF), …; assay: FACS, TF transfected CHO cells (S1015-TF), 7.5 µg/mL
Method: as §1

[15] = target: T3, TFECDHis (extracellular domain of …); assay: SPR BIAcore 3000, HuMab immobilized, TFECDHis analyte
Method: Antibody binding to TF was analyzed by surface plasmon resonance in a BIAcore 3000 (GE Healthcare). TFECDHis was used for the analysis. HuMab antibodies (500 resonance units) were immobilized on the CM-5 sensor chip according to the procedure recommended by the manufacturer. Briefly, after surface activation by EDC and NHS HuMab antibody was injected over the activated CM-5 surface in 10 mM sodium-acetate, pH ranging from 4.0 to 5.5 at 5 μl/min. followed by 1 M Ethanolamine for deactivation. Concentration series of TFECDHis in HBS-EP buffer were injected over the immobilized antibodies at a flow rate of 30 μl/min for 180 sec. Regeneration of the HuMab surface was performed by injection of 10 mM Glycine-HCl pH 2.0 or 10 mM sodium acetate pH 3.0. Kinetic analysis was performed using double reference subtraction and model 1:1 (langmuir) binding analysis.

[16] = target: T3, TFECDHis (extracellular domain of …); assay: competition ELISA, inhibition of FVIIa (100 nM) binding to coated TFECDHis
Method: ELISA plates were coated overnight with TFECDHis (0.5 μg/mL, 100 μL per well). Plates were emptied, blocked with PBS containing 2% (v/v) chicken serum (1 hour, RT), and emptied again. […] Plates were washed and incubated with swine-anti-rabbit IgG-HRP antibody (1:2,500; DAKO). After washing, the immune complexes were visualized using ABTS as a substrate.

[17] = target: T4, murine tissue factor (TF) on transfected HEK293F cells (murine, UniProt P20352 29-294); assay: FACS on transfected HEK293F cells, 30 µg/mL antibody [panel A]
T4 construct: whole, on cells; also called murine TF; TFmm
T4 sequence (looked up): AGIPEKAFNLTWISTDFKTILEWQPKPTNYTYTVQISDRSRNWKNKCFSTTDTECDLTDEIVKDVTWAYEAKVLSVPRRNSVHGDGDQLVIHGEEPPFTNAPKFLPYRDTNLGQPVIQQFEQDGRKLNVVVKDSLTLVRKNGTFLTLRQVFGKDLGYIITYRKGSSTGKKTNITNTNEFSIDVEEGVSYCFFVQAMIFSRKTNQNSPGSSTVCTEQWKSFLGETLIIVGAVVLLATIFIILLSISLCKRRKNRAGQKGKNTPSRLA

[18] = target: T4, murine tissue factor (TF) on …; assay: FACS on transfected HEK293F cells, 30 µg/mL antibody [Figure 18; no figure label on the sheet]
Method: as §1
To determine domains important for binding of anti-TF HuMabs to human TF, DNA shuffling was performed between human and murine TF. Shuffle constructs were prepared from DNA encoding human TF, by replacing human domains with murine domains and from DNA encoding murine TF by replacing murine domains with human domains.

[19] = target: T1, human tissue factor (TF), …; assay: FACS, Fab fragment on BxPC3 cells
Method: as §1
(§3) Binding of Fab fragments of anti-TF HuMabs to TF was measured by ELISA (coated extracellular domain of TF) and by FACS (TF on BxPC3 cells). ELISA was performed essentially as described supra. Bound Fab fragments were detected using HRP-conjugated donkey-anti human H+L. FACS analysis was performed essentially as described supra. FITC-conjugated goat anti-human IgG (H+L) (Jackson) was used to detect bound lead candidates. Fluorescence was measured on a FACSCantoII. Binding curves were analyzed as described supra, using GraphPad Prism 5 software.

[20] = target: T3, TFECDHis (extracellular domain of …); assay: ELISA, Fab fragment on coated extracellular domain of TF
Method: as §2, §3

B1: anti-TF HuMab 003 (antibody, V domains shown)
VH: QVQLVQSGAEVKKPGSSVKVSCKAPRGTFSYYTISWVRQAPGQGLEWMGRIIPILGVANYAQKFQGRVTITADKSTSTAYMELSSLRSEDTAVYYCAREGDRRYFDYWGQGTLVTVSS
VL: AIQLTQSPSSLSASVGDRVTITCRASQDISSALAWYQQKPGKAPKLLIYDASILESGVPSRFSGSGSGTDFTLTISSLQPEDFATYYCQQFNSYPLTFGGGTKVEIK
notes: Human monoclonal antibody from HuMab mice; also called HuMab-TF-003
EC50 [1]: 6.94 nM
EC50 [2]: 4.98 nM
EC50 [3]: 3.2 nM
% max inhibition of FVIIa induced ERK phosphorylation (A431) [4]: 63%
IC50, inhibition of FVIIa induced ERK phosphorylation (A431) [4]: 7.99 nM
IC50, inhibition of FVIIa induced IL-8 release (MDA-MB-231) [5]: 23.7 nM
max inhibition of FVIIa induced IL-8 release (MDA-MB-231) [5]: 76.2%
% max inhibition of FXa generation (TF (Innovin) [6]): 21%
IC50, inhibition of FXa generation (TF (Innovin) [6]): 0.07 nM
IC50, inhibition of blood coagulation (TF induced clotting time) (TF (Innovin) [7]): 7.3 nM
EC50 of ADCC, Bx-PC3 cells [8]: 0.17 nM
EC50 of ADCC, MDA-MB-231 cells [8]: 0.29 nM
Max MFI [9]: 2530
Max MFI [10]: 1110
Max MFI [11]: 1800
EC50 [12]: 0.46 nM
EC50 [13]: 2.06 nM
Max MFI [14]: 4250
Kd [15]: 4.51 nM
IC50 [16]: 1.9 nM
max inhibition [16]: 89%
binding result [17]: binds

B2: anti-TF HuMab 017-D12 (antibody, V domains shown)
VH: EVQLLESGGGLVQPGGSLRLSCAASGFTFSSYAMSWVRQAPGKGLEWVSAISGSGDSTNYADSVKGRFTISRDNSKNTLYLQMNSLRAEDTAVYYCAKDGYFLLWYFDLWGRGTLVTVSS
VL: not shown
notes: Human monoclonal antibody from HuMab mice
binding result [18]: no binding (tested: 30 µg/mL)

B3: HuMab-TF-011 Fab fragment (Fab, V domains shown)
VH: EVQLLESGGGLVQPGGSLRLSCAASGFTFSNYAMSWVRQAPGKGLEWVSSISGSGDYTYYTDSVKGRFTISRDNSKNTLYLQMNSLRAEDTAVYYCARSPWGYYLDSWGQGTLVTVSS
VL: DIQMTQSPPSLSASAGDRVTITCRASQGISSRLAWYQQKPEKAPKSLIYAASSLQSGVPSRFSGSGSGTDFTLTISSLQPEDFATYYCQQYNSYPYTFGQGTKLEIK
notes: Fab fragment of the HuMab; VH and VL as for the parent antibody; also called -011 Fab fragments
EC50 [19]: 0.132 µg/mL
EC50 [20]: 0.04 µg/mL

B4: HuMab-TF-013 Fab fragment (Fab, V domains shown)
VH: EVQLVQSGAEVKKPGESLKISCKGSGYSFTSYWIGWVRQMPGKGLEWMGIIYPGDSDTRYSPSFQGQVTISADKSISTAYLQWSSLKASDTAMYYCARIHRGAGYSSSWPGAFDIWGQGTMVTVSS
VL: B3 VL with P9S, A15V, S31R, R32W, N92D, Y94D, Y96I, K103R
notes: Fab fragment of the HuMab; VH and VL as for the parent antibody
EC50 [19]: 0.301 µg/mL
EC50 [20]: 0.03 µg/mL

B5: HuMab-TF-044 Fab fragment (Fab, V domains shown)
VH: QVQLVESGGGVVQPGRSLRLSCAASGFTFSDYAMHWVRQAPGKGLEWVAVIPYDGDNKYYADSVKGRFTISRDNSKNTLYLQMNSLRAEDTAVYYCAREDWGLEVDYWGQGALVTVSS
VL: B1 VL with D28G, S30N, I53S
notes: as for B4
EC50 [19]: 8.04 µg/mL
EC50 [20]: 0.59 µg/mL

B6: HuMab-TF-098 Fab fragment (Fab, V domains shown)
VH: QVQLVQSGAEVRKPGSSVKVSCKASGGSFNNYPIFWVRQAPGQGFEWMGRIIPILGITAYAQKFQGRVTITADKSTSTAYMELNSLRSEDTAVYYCAGGDDLDAFDIWGQGTMVSVSS
VL: B3 VL with P9S, A15V, R32W
notes: as for B4
EC50 [20]: 1.98 µg/mL

B7: HuMab-TF-109 Fab fragment (Fab, V domains shown)
VH: QVQLVESGGGVVQPGRSLRLSCPASGFTFSIYAMHWVRQAPGKGLEWVAVVSNDGYNKYYADSVKGRFTISRDNSKDTLYLQMNSLRAEDTAVYYCARDGQLGRGYFDYWGQGTLVTVSS
VL: EIVLTQSPATLSLSPGERAILSCRASQSVSSYLAWYQQKPGQAPRLLIYDASNRATGIPARFSGSGSGTDFTLTISSLEPEDFAVYYCQQRSNWPLTFGGGTKVEIK
notes: as for B4
EC50 [19]: 0.143 µg/mL
EC50 [20]: 0.02 µg/mL

B8: HuMab-TF-111 Fab fragment (Fab, V domains shown)
VH: QVQLVESGGGVVQPGRSLRLSCAGSGFTFNRYAMYWVRQAPGKGLDWVAVISNDGINKYYADSVKGRFTISRDNSKNTLYLQMNSLRAEDTAVYYCARDHTMVRGAFDYWGQGTLVTVSS
VL: B7 VL with I20T
notes: as for B4
EC50 [20]: 3.14 µg/mL

Source: patent publication US20110300156A1 (Genmab, published 2011)
